T1: His6-tagged CB1R-CTD (amino acids 400-472), labeled with 5-IAF (UniProt P21554 400-472, labeled with 5-(iodoacetamido)fluorescein (5-IAF); labeled residue not stated)
T1 chain: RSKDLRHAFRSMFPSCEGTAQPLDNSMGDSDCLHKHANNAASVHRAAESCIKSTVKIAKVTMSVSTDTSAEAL

B1: His6-tagged BiP-IR (amino acids 497-654), recombinant (domain or fragment)
chain: IEVTFEIDVNGILRVTAEDKGTGNKNKITITNDQNRLTPEEIERMVNDAEKFAEEDKKLKERIDTRNELESYAYSLKNQIGDKEKLGGKLSSEDKETMEKAVEEKIEWLESHQDADIEDFKAKKKELEEIVQPIISKLYGSAGPPPTGEEDTAEKDEL
B2: His6-tagged BiP, recombinant (natural protein)
chain: not shown

Target: T1, His6-tagged CB1R-CTD (amino acids …)
Experiment: FP

Binder	Kd
B1	17.3 µM
B2	17.7 µM

Reference: paper PMC8460140 (2021)
